Experimental data from PMC4385471 (Molecular cell, 2015).

T1: Maltose Binding Protein (MBP) tagged IpaJΔ50 (Shigella flexneri, UniProt Q54150 51-259)
T1 sequence: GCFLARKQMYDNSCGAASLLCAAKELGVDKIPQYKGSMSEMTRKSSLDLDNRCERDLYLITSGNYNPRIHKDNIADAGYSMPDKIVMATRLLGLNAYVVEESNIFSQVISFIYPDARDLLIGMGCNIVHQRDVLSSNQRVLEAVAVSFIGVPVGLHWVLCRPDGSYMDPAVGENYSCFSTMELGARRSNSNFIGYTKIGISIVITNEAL

B1: Glutathione S-transferase (GST) tagged ARF1ΔN17 (domain or fragment)
chain: not shown
B2: GST-ARF5Δ17 (domain or fragment)
chain: not shown
B3: MBP-GGA1(76-215) (domain or fragment, UniProt Q9UJY5 76-215, looked up)
chain: SCGKRFHDEVGKFRFLNELIKVVSPKYLGSRTSEKVKNKILELLYSWTVGLPEEVKIAEAYQMLKKQGIVKSDPKLPDDTTFPLPPPRPKNVIFEDEEKSKMLARLLKSSHPEDLRAANKLIKEMVQEDQKRMEKISKRV
B4: GST-ARF6Δ13 (domain or fragment, UniProt P62330 14-175, looked up)
chain: MRILMLGLDAAGKTTILYKLKLGQSVTTIPTVGFNVETVTYKNVKFNVWDVGGQDKIRPLWRHYYTGTQGLIFVVDCADRDRIDEARQELHRIINDREMRDAIILIFANKQDLPDAMKPHEIQEKLGLTRIRDRNWYVQPSCATSGDGLYEGLTWLTSNYKS

What was measured:
[1] = target: T1, Maltose Binding Protein (MBP) tagged …; experiment: homologous competition assay
[2] = target: T1, Maltose Binding Protein (MBP) tagged …; experiment: pull-down
[3] = target: B1; experiment: homologous competition assay

## B1
[1]
  Kd: 0.28 µM

## B2
[2]
  binding result: binds

## B3
[3]
  Kd: 1.81 µM

## B4
[2]
  binding result: binds
